Where two headings read alike, the source gives them in different places. No end group written: not given here.
What was measured:
[1] = biological target: T1, human recombinant adrenomedullin receptor (CRLR+RAMP3) (human); test: cell-based or functional assay
[2] = biological target: T1, human recombinant adrenomedullin …; test: cell-based or functional assay; remark: listed apart in the source

T1 sequence (Q16602 whole entry, chain 1 of 2): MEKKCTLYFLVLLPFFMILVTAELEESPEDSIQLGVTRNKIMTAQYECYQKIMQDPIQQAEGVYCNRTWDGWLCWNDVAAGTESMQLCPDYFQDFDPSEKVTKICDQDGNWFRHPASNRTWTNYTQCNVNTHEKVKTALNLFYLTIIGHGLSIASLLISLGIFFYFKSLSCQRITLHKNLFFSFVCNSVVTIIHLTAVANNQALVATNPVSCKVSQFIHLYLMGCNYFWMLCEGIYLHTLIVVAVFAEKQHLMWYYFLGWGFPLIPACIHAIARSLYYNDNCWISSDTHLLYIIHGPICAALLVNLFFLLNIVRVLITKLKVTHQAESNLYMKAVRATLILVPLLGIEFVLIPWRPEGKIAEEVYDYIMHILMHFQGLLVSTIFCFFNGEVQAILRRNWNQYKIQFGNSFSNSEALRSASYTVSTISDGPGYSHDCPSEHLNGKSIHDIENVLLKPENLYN
T1 sequence (O60896 whole entry, chain 2 of 2, further chain): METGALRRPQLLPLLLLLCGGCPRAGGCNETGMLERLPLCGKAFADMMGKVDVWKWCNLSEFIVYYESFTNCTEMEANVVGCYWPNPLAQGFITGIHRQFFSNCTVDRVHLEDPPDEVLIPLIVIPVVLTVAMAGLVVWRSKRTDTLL

Binder	EC50 (read off the curve); cAMP HTRF assay, CHO-K1 cells with human CRLR+RAMP3 [1]	EC50 (read off the curve); cAMP HTRF assay, CHO-K1 cells with human CRLR+RAMP3 [2]
mature human Adrenomedullin (Human ADM 1-52) (ends and bridges not checked) peptide: YRQSMNNFQGLRSFGCRFGTCTVQKLAHQIYQFTDKDKDNVAPRSKISPQGY-NH2	~1 nM	–
YRQSMNQGSRSNGCRFGTCTFQKLAHQIYQLTDKDKDGMAPRNKISPQGY-NH2 (ends and bridges not checked) [Mouse ADM 1-50]	–	~0.08 nM

From patent publication US20210285949A1 (SPHINGOTEC, published 2021)
